Experimental findings from PMC8125234, “Cardiolipin Stabilizes and Increases Catalytic Efficiency of Carnitine Palmitoyltransferase II and Its Variants S113L, P50H, and Y479F” (International Journal of Molecular Sciences, 2021) are described below.

Data set [1] can be described thus: Onset of aggregation by scattered light back reflection during heating ramp. Type of data set: physicochemical. The settings on record: assay buffer; heating ramp 15 °C to 80 °C. As to the method: Supplementary materials can be found at https://www.mdpi.com/article/10.3390/ijms22094831/s1, Figure S1: Scattered light back reflection as measure for aggregation during the heating ramp from 15 °C to 80 °C of CPT II WT (black) and the variants P50H (red), S113L (blue) and Y479F (green) in assay buffer (magenta). The light scattering data were obtained simultaneously with nanoDSF data using the back reflection technology in a Prometheus NT.48 device. The unfolding of proteins leads to display of hydrophobic regions of the protein on the surface, which is followed by hydrophobic interaction of the protein molecules resulting in aggregation events. These aggregates are then detected via light scattering. […] The data allow the detection of onset of aggregation (Tagg) which differs clearly among the variants. The Tagg for WT is 38 °C, Y479F is 37 °C, S113L is 35 °C and P50H is 32 °C. […] Figure S2: The first derivatives of the transition curves of WT and the variants resulting from the ratio 350/330 nm were plotted against the temperature. The black, red, blue and green solid lines show the curves of WT and variants P50H, S113L and Y479F measured in assay buffer, respectively. The black, red, blue and green dashed lines show the maxima of the values of the first derivatives of the ratio 350 nm/330 nm of WT and variants P50H, S113L and Y479F, respectively. Figure S3: The effect of amino acid exchange in absence and presence of n-octyl-β-d-glucopyranoside (β-OG) on the stability of CPT II (1 mg/mL) assessed by nanoDSF. The TM of WT (37 °C) in buffer was used as reference value (ΔTM = 0 °C) to determine the ΔTM for the variants and the ΔTM for WT and variants in presence of β- OG. Error bars are SD derived from three independent experiments. Table S1. Comparison of the mean values of the half-lives (t1/2) of CPT II WT and the variants at 30 °C with the half-lives at 37, 40 or 42 °C. The differences of the half-lives for each CPT II enzyme between 37 and 40 or 42 °C as well as 40 and 42 °C are not significant. Number of experiments for each variant (n ≥ 3). Table S2. Comparison of the mean values of the half-lives (t1/2) between CPT II WT and the variants Y479F, S113L and P50H at 30, 37, 40 or 42 °C. n ≥ 3. Table S3. […] Comparison of the ∆TM-values of CPT II WT and the variants Y479F, S113L and P50H in buffer or in presence of 0.25 mM cardiolipin or 1% n-octyl-β-d-glucopyranoside (β-OG) assessed by nanoDSF (n ≥ 3). […] Comparison of the transition temperatures (TM) of WT and the variants Y479F, S113L and P50H in buffer with of 0.25 mM cardiolipin or 1% n-octyl-β-d-glucopyranoside (β-OG) assessed by nanoDSF (n ≥ 3). […]

Substrate in data set [2]: C[N+](C)(C)C[C@H](O)CC(=O)[O-]
The data set can be described thus: Determination of the kinetic parameters kcat and KM. In kind it is biochemical, human. The settings on record: L-carnitine varied, absence of CL, 25 °C. As to the method:
Before activity measurements, the storage buffer of the enzymes was replaced with assay buffer (50 mM KH2PO4, 120 mM KCl, 1 mM EDTA-Na4) using vivaspin turbo 4 tubes (Satorius Stedim biotech GmbH, Göttingen, Germany) at 4 °C. The pH of assay buffer was adjusted with KOH to 7.4. The storage buffer was diluted at least 1:500 in assay buffer. In addition, before each experimental set up, the protein samples were centrifuged at 16,000× g for 5 min at 4 °C to remove any micro-aggregates. After that, the protein concentration was determined using bicinchoninic acid (BCA) protein assay kit (Thermo Fisher Scientific GmbH, Berlin, Germany). The enzyme activity of recombinant CPT II was performed following Rufer et al. with modifications described elsewhere. […] After pre-conditioning the mixture to 25 °C for 2 min, the reaction was started by adding 15 nM of recombinant enzyme. The reverse reaction of CPT II was detected with the enzyme activity assay. CPT II catalyzed the transfer of fatty acid residue from Pal-CoA to L-carnitine with release of CoA and Pal-carnitine. The released CoA was then detected by the reaction of the free thiol group with DTNB, forming 5-mercapto-(2-nitrobenzoic acid). This compound has a molar extinction coefficient of 13,600 M^−1 cm^−1 at a wavelength of 410 nm, and its formation was followed spectroscopically. […] The slope of the progress curve was used to determine the reaction velocity.
It is assumed that the reaction catalyzed by CPT II represents a ping-pong mechanism or compulsory order ternary-complex mechanism.
The kinetic parameters were determined by evaluating the obtained v/S characteristic according to the Michaelis–Menten Equation (1). The […] kcat was calculated using Equation (2):(1) v=Vmax∗[S]/KM+[S] (2) kcat=Vmax/cenzyme

Data set [3] can be described thus: nanoDSF thermostability of recombinant CPT II enzymes in assay buffer. Type of data set: physicochemical. The settings on record: for TM in Buffer: assay buffer, 1 mg/mL protein, nanoDSF; for ∆TM in Buffer: reference TM of WT in buffer (ΔTM = 0 °C). As to the method:
The protein stability was investigated applying nano differential scanning fluorimetry (nanoDSF) using a protein concentration of 1 mg/mL in assay buffer. […] The heating rate has been set to 1 °C per min. A heating ramp from 15 to 95 °C was determined. The nanoDSF data were obtained using a Prometheus NT.48 device. First derivatives were calculated using PR.ThermControl software (NanoTemper Technologies GmbH, Munich, Germany). Experiments were performed at least three times independently as double determination.
(In general: Differential scanning fluorimetry follows unfolding on heating by fluorescence.)

“And” between values parts separate entries of the source, which are not always exact repeats. Equal values may be shown once.

B1: CPT II WT (Homo sapiens) (protein)
chain: SAGSGPGQYLQRSIVPTMHYQDSLPRLPIPKLEDTIRRYLSAQKPLLNDGQFRKTEQFCKSFENGIGKELHEQLVALDKQNKHTSYISGPWFDMYLSARDSVVLNFNPFMAFNPDPKSEYNDQLTRATNMTVSAIRFLKTLRAGLLEPEVFHLNPAKSDTITFKRLIRFVPSSLSWYGAYLVNAYPLDMSQYFRLFNSTRLPKPSRDELFTDDKARHLLVLRKGNFYIFDVLDQDGNIVSPSEIQAHLKYILSDSSPAPEFPLAYLTSENRDIWAELRQKLMSSGNEESLRKVDSAVFCLCLDDFPIKDLVHLSHNMLHGDGTNRWFDKSFNLIIAKDGSTAVHFEHSWGDGVAVLRFFNEVFKDSTQTPAVTPQSQPATTDSTVTVQKLNFELTDALKTGITAAKEKFDATMKTLTIDCVQFQRGGKEFLKKQKLSPDAVAQLAFQMAFLRQYGQTVATYESCSTAAFKHGRTETIRPASVYTKRCSEAFVREPSRHSAGELQQMMVECSKYHGQLTKEAAMGQGFDRHLFALRHLAAAKGIILPELYLDPAYGQINHNVLSTSTLSSPAVNLGGFAPVVSDGFGVGYAVHDNWIGCNVSSYPGRNAREFLQCVEKALEDMFDALEGKSIKS
notes: made in house; host or cells: Escherichia coli BL21Gold DE
Consider B1, for which, in data set [1], the “Onset of aggregation (Tagg)” value turned out to be 38 °C. Moreover, in data set [2] (other: WT), the Km amounted to 15.1 ± 3.4 mM, the turnover number (kcat) worked out at 149 ± 11.1 s⁻¹ and the kcat/Km stood at 9800 ± 1600 M⁻¹ s⁻¹. In data set [3], the “TM in Buffer” value was 36.9 ± 1.0 °C and 37 °C; the “∆TM in Buffer” value was found to be 0.0 ± 1.0 °C.

B2: CPT II variant S113L (Homo sapiens; S113L) (protein)
chain: SAGSGPGQYLQRSIVPTMHYQDSLPRLPIPKLEDTIRRYLSAQKPLLNDGQFRKTEQFCKSFENGIGKELHEQLVALDKQNKHTSYILGPWFDMYLSARDSVVLNFNPFMAFNPDPKSEYNDQLTRATNMTVSAIRFLKTLRAGLLEPEVFHLNPAKSDTITFKRLIRFVPSSLSWYGAYLVNAYPLDMSQYFRLFNSTRLPKPSRDELFTDDKARHLLVLRKGNFYIFDVLDQDGNIVSPSEIQAHLKYILSDSSPAPEFPLAYLTSENRDIWAELRQKLMSSGNEESLRKVDSAVFCLCLDDFPIKDLVHLSHNMLHGDGTNRWFDKSFNLIIAKDGSTAVHFEHSWGDGVAVLRFFNEVFKDSTQTPAVTPQSQPATTDSTVTVQKLNFELTDALKTGITAAKEKFDATMKTLTIDCVQFQRGGKEFLKKQKLSPDAVAQLAFQMAFLRQYGQTVATYESCSTAAFKHGRTETIRPASVYTKRCSEAFVREPSRHSAGELQQMMVECSKYHGQLTKEAAMGQGFDRHLFALRHLAAAKGIILPELYLDPAYGQINHNVLSTSTLSSPAVNLGGFAPVVSDGFGVGYAVHDNWIGCNVSSYPGRNAREFLQCVEKALEDMFDALEGKSIKS
notes: as for B1
With B2, the “Onset of aggregation (Tagg)” value in data set [1] worked out at 35 °C. For the same molecule, in data set [2] (other: S113L), the Km stood at 15.5 ± 2.3 mM, the catalytic constant (kcat) came out at 144 ± 5 s⁻¹ and the kcat/Km turned out to be 9300 ± 1400 M⁻¹ s⁻¹. Also, the “∆TM in Buffer” value in data set [3] was -3.1 ± 0.7 °C.

B3: CPT II variant Y479F (Homo sapiens; Y479F) (protein)
chain: SAGSGPGQYLQRSIVPTMHYQDSLPRLPIPKLEDTIRRYLSAQKPLLNDGQFRKTEQFCKSFENGIGKELHEQLVALDKQNKHTSYISGPWFDMYLSARDSVVLNFNPFMAFNPDPKSEYNDQLTRATNMTVSAIRFLKTLRAGLLEPEVFHLNPAKSDTITFKRLIRFVPSSLSWYGAYLVNAYPLDMSQYFRLFNSTRLPKPSRDELFTDDKARHLLVLRKGNFYIFDVLDQDGNIVSPSEIQAHLKYILSDSSPAPEFPLAYLTSENRDIWAELRQKLMSSGNEESLRKVDSAVFCLCLDDFPIKDLVHLSHNMLHGDGTNRWFDKSFNLIIAKDGSTAVHFEHSWGDGVAVLRFFNEVFKDSTQTPAVTPQSQPATTDSTVTVQKLNFELTDALKTGITAAKEKFDATMKTLTIDCVQFQRGGKEFLKKQKLSPDAVAQLAFQMAFLRQFGQTVATYESCSTAAFKHGRTETIRPASVYTKRCSEAFVREPSRHSAGELQQMMVECSKYHGQLTKEAAMGQGFDRHLFALRHLAAAKGIILPELYLDPAYGQINHNVLSTSTLSSPAVNLGGFAPVVSDGFGVGYAVHDNWIGCNVSSYPGRNAREFLQCVEKALEDMFDALEGKSIKS
notes: as for B1
Regarding B3, the “Onset of aggregation (Tagg)” value in data set [1] turned out to be 37 °C. For the same molecule, in data set [2] (other: Y479F), the Km amounted to 17.4 ± 4.4 mM, the kcat was found to be 140 ± 18.5 s⁻¹ and the kcat/Km stood at 8100 ± 1100 M⁻¹ s⁻¹. Besides, in data set [3], the “TM in Buffer” value amounted to 36.2 ± 1.2 °C and the “∆TM in Buffer” value is -0.74 ± 1.2 °C.

Usually Km stands for the substrate concentration at which the rate is half of its maximum. One may read the kcat as the number of substrate molecules converted per active site and unit of time at saturation. As a reminder, the kcat/Km is the second-order rate constant that governs catalysis at low substrate concentration.
